The values that follow come from the Human Domainome abundance scans (Beltran et al. 2025).

± gives the uncertainty stated by the source.

To fix the notation:
B1: Apoptosis-associated speck-like protein containing a CARD, residues 114 to 194; numbered along this chain, Q9ULZ3 (parent)
chain: FIDQHRAALIARVTNVEWLLDALYGKVLTDEQYQAVRAEPTNPSKMRKLFSFTPAWNWTCKDLLLQALRESQSYLVEDLER

In the data set the parent is B1. The data set is described as follows: abundance fitness (aPCA) (normalised: wild type 0, dead -1); higher = more abundant; growth selection in yeast, the domain comes from the species named. The conditions noted are these: Homo sapiens.
Regarding A22I, the abundance fitness was 0.126 ± 0.28.

Take A22V: the abundance fitness is -0.476 ± 0.074. Turning to A22G, the abundance fitness was -0.4 ± 0.056. On to A22T, for which the abundance fitness is -0.146 ± 0.073.

As for A22N, the abundance fitness is -0.08 ± 0.16. The same measure for A22W: -0.183 ± 0.06.

Consider L28M, for which the abundance fitness is -0.767 ± 0.15.

For the variant L28R, the abundance fitness is -0.871 ± 0.084. Turning to L28N, the abundance fitness is -0.805 ± 0.31. The same measure for T14A: -0.4 ± 0.067; for T14M: -0.607 ± 0.19.

With T14S, the abundance fitness is -0.045 ± 0.052.

Consider T14E, for which the abundance fitness was -0.004 ± 0.078. The same measure for A8N: -0.558 ± 0.39; for A8H: -0.375 ± 0.11. In the case of A8C, the abundance fitness was -0.312 ± 0.097. The figure for A8T is -0.239 ± 0.069; for A8S it is -0.112 ± 0.052. As for A8K, the abundance fitness is -0.521 ± 0.13. For the variant A8Y, the abundance fitness was -0.193 ± 0.12.

As for L20V, the abundance fitness is -0.388 ± 0.051. Consider L20E, for which the abundance fitness is -0.723 ± 0.13. The same measure for T29I: -0.825 ± 0.28; for Q34R: -0.003 ± 0.052; for Q34K: -0.143 ± 0.13.

As for Q34N, the abundance fitness was -0.004 ± 0.12. For Q34S, the abundance fitness was -0.388 ± 0.08. The figure for Q34H is 0.05 ± 0.095. The same measure for R37E: -0.304 ± 0.063; for R37P: -0.792 ± 0.13; for R37F: -0.509 ± 0.15. The same measure for R37M: 0.136 ± 0.073. For the variant R37L, the abundance fitness came out at 0.067 ± 0.042.

Consider R37D, for which the abundance fitness is -0.219 ± 0.074. The same measure for A11E: -0.115 ± 0.41. For Q4H, the abundance fitness is -0.315 ± 0.14. As to Q4L, the abundance fitness is -0.352 ± 0.059. In the case of Q4F, the abundance fitness was -0.34 ± 0.23. As to Q4W, the abundance fitness was -0.802 ± 0.15. For A55I, the abundance fitness was -0.286 ± 0.44. The figure for A55S is 0.107 ± 0.056.

For the variant A55M, the abundance fitness was -0.162 ± 0.12.

Consider A55Y, for which the abundance fitness is -0.077 ± 0.21. The same measure for D78N: -0.291 ± 0.098.

Take D78Q: the abundance fitness is -0.137 ± 0.06. Consider E70S, for which the abundance fitness was -0.265 ± 0.067. E70M: the abundance fitness is -0.46 ± 0.11. The figure for E70C is -0.202 ± 0.084; for E70Y it is -0.588 ± 0.23. The same measure for E70K: -0.116 ± 0.17. As to E17R, the abundance fitness is -0.642 ± 0.07.

Take E17H: the abundance fitness is -0.695 ± 0.17. The figure for E17V is -0.985 ± 0.12.

On to E17D, for which the abundance fitness was 0.019 ± 0.1.

L68W: the abundance fitness is -1.18 ± 0.26. The same measure for L68I: 0.001 ± 0.13; for L68S: -0.838 ± 0.16. The figure for L68H is -0.334 ± 0.16; for L68V it is -0.527 ± 0.078. The same measure for L68E: -0.886 ± 0.19. Take N57K: the abundance fitness is -0.492 ± 0.12.

Turning to N57M, the abundance fitness is -0.399 ± 0.087.

Regarding N57L, the abundance fitness was -0.178 ± 0.056. The same measure for F1H: -0.375 ± 0.41. The same measure for P40M: -0.896 ± 0.24.

Consider P40K, for which the abundance fitness was -0.123 ± 0.086. The same measure for S51M: -0.321 ± 0.11; for S51E: -0.012 ± 0.068; for S51Y: -0.843 ± 0.2. The figure for S51Q is -0.205 ± 0.08; for S51K it is -0.96 ± 0.16; for L65E it is -0.142 ± 0.1. In the case of L65M, the abundance fitness was -0.194 ± 0.091. The same measure for L75A: -0.671 ± 0.092; for L75S: -0.669 ± 0.089.

Regarding L75H, the abundance fitness was -0.611 ± 0.23.

Consider L75C, for which the abundance fitness is -0.839 ± 0.28. On to L75M, for which the abundance fitness was -0.647 ± 0.23. Take L75Q: the abundance fitness is -0.651 ± 0.13.

As for W18Y, the abundance fitness worked out at 0.186 ± 0.093. As to W18L, the abundance fitness is 0.043 ± 0.048. For W18V, the abundance fitness is 0.107 ± 0.048.

For V13L, the abundance fitness was -0.632 ± 0.076. The same measure for V13W: -0.893 ± 0.12; for V13N: -0.861 ± 0.25. The figure for V13F is -0.495 ± 0.15; for V13E it is -0.538 ± 0.11; for R69I it is -0.195 ± 0.13.

Take R69L: the abundance fitness is -0.502 ± 0.071.

R69E: the abundance fitness was -0.29 ± 0.13. R69D: the abundance fitness was -0.859 ± 0.4. On to R69A, for which the abundance fitness was -0.54 ± 0.094. On to R69C, for which the abundance fitness was -0.367 ± 0.13. The figure for R69V is -0.378 ± 0.073.

In the case of R69T, the abundance fitness was -0.538 ± 0.12. The same measure for R69Q: -0.716 ± 0.16; for G25P: 0.191 ± 0.053; for G25A: -0.43 ± 0.061. For G25R, the abundance fitness was -0.445 ± 0.049. The same measure for G25H: -0.213 ± 0.12; for E80H: 0.018 ± 0.34; for E80A: -0.283 ± 0.079.

Consider E80V, for which the abundance fitness is -0.409 ± 0.067. For the variant E80T, the abundance fitness was -0.172 ± 0.14. Turning to E80K, the abundance fitness is -0.751 ± 0.21.

For E80S, the abundance fitness was -0.204 ± 0.058. Regarding L49D, the abundance fitness was -0.914 ± 0.23. The figure for L49P is -0.73 ± 0.12. Turning to L64F, the abundance fitness turned out to be 0.2 ± 0.11. Take L64W: the abundance fitness is -0.961 ± 0.2. For the variant V76P, the abundance fitness was -0.632 ± 0.1. The same measure for W58K: 0.19 ± 0.083; for W58P: 0.145 ± 0.06; for W58E: 0.376 ± 0.07.

Take W58Y: the abundance fitness is 0.203 ± 0.21. Take W58S: the abundance fitness came to 0.306 ± 0.046. Take A38Y: the abundance fitness was -1.08 ± 0.48. As for A38I, the abundance fitness was -0.413 ± 0.1.

In the case of A38T, the abundance fitness is -0.552 ± 0.11. On to A38P, for which the abundance fitness was -0.935 ± 0.17.

As for A38Q, the abundance fitness was -0.179 ± 0.078. The same measure for A38E: -0.15 ± 0.078; for T41S: -0.199 ± 0.057; for E39A: -0.474 ± 0.094. The figure for E39C is -0.088 ± 0.074. As to E39F, the abundance fitness is -0.714 ± 0.13. The figure for E39P is -0.914 ± 0.2; for E39H it is -0.79 ± 0.38. The figure for E39L is -0.303 ± 0.06; for A7E it is 0.295 ± 0.069.

Turning to A7R, the abundance fitness was -0.119 ± 0.045. For A7F, the abundance fitness is -0.652 ± 0.16. The same measure for A7L: -0.461 ± 0.068; for A7N: 0.002 ± 0.13; for A7C: -0.2 ± 0.05. The figure for A7T is -0.277 ± 0.11; for D21E it is -0.091 ± 0.069; for D21A it is -0.477 ± 0.052. Regarding D21W, the abundance fitness is -0.496 ± 0.084.

As for K61E, the abundance fitness is -0.337 ± 0.089. On to K61D, for which the abundance fitness was -0.534 ± 0.19. The same measure for K61F: 0.22 ± 0.16. For K61G, the abundance fitness was -0.601 ± 0.064. For the variant K61A, the abundance fitness is -0.332 ± 0.057.

With E77C, the abundance fitness is -0.616 ± 0.18. The figure for E77H is -0.365 ± 0.19; for E77M it is -0.244 ± 0.14.

Turning to E77F, the abundance fitness is -0.147 ± 0.22. On to A35L, for which the abundance fitness is -0.218 ± 0.054. As for S44D, the abundance fitness is 0.091 ± 0.085. The figure for S44A is 0.116 ± 0.044; for S44K it is -0.265 ± 0.1.

Consider S44V, for which the abundance fitness was -0.947 ± 0.12.

Take S44M: the abundance fitness came out at 0.024 ± 0.089. The figure for S44W is -0.531 ± 0.073.

As for R47Y, the abundance fitness is -0.872 ± 0.31. On to R47D, for which the abundance fitness was -0.517 ± 0.16. The figure for T53G is -0.663 ± 0.058; for Q32G it is -0.725 ± 0.07; for Q32T it is -0.507 ± 0.12.

In the case of Q32R, the abundance fitness is -0.917 ± 0.11. The same measure for Q32S: -0.598 ± 0.091; for Q32E: -0.276 ± 0.11. The same measure for D62F: -0.195 ± 0.12. The figure for D62I is -0.581 ± 0.17.

Take D62L: the abundance fitness is -0.43 ± 0.073. For D62T, the abundance fitness is -0.423 ± 0.1.
